In experiment [1] the target is human ADAMTS13 (in normal human plasma) (human) (UniProt Q76LX8). Kind of experiment: cell-based or functional assay.
Experiment [2] has the same target. Put plainly: sandwich ELISA, antibody coated 10 to 0.02 µg/mL, constant 15% NHP, detection with biotinylated 17G2 and 19H4. Background: ELISA stands for enzyme-linked immunosorbent assay.

Sequence of human ADAMTS13 (in normal human plasma) (human) (Q76LX8 75-1427): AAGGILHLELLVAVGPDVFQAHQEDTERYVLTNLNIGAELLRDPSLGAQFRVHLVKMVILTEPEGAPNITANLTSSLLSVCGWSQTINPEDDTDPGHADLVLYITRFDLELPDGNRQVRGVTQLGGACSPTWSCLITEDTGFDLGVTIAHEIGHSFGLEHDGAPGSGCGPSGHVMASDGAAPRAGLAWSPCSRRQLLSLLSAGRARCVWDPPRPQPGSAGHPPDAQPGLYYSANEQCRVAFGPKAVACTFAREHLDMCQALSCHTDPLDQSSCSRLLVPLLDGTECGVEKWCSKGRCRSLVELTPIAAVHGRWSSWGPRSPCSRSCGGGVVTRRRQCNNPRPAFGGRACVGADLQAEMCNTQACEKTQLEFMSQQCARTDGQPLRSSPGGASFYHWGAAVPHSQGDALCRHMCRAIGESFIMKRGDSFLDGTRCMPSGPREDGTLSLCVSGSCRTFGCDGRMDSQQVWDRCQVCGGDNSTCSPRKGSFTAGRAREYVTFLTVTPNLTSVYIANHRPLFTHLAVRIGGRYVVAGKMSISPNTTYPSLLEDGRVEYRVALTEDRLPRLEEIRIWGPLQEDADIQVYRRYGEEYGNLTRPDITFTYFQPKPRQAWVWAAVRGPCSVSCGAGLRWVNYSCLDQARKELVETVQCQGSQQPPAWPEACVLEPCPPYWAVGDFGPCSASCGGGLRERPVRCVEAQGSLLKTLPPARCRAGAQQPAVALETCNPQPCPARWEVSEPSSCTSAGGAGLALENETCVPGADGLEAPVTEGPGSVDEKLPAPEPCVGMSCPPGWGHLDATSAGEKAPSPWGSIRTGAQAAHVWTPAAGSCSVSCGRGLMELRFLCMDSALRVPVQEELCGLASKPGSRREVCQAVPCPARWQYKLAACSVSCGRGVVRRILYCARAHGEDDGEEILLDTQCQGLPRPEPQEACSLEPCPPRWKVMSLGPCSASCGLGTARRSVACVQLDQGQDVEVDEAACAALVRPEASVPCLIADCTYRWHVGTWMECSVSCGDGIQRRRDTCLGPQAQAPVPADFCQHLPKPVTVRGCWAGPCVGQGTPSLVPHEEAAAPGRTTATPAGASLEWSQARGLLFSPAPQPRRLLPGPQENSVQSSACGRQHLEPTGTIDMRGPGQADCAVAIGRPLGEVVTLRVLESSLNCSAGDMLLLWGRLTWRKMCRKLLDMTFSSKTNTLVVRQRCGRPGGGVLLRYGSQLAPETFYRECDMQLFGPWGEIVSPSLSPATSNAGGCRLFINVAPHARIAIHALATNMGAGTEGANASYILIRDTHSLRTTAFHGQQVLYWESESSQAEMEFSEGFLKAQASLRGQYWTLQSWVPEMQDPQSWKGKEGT

B1: anti-ADAMTS13 monoclonal antibody 17C7 (antibody, V domains shown)
VH: EVQLVESGGDLVKSGGSLKLSCAASGFIFSNYAMSWVRQTPEKRLEWGATITTGGFYTFYSDSVKGRFTISRDNAKNTLYLQMSSLRSEDTAMYYCARHRYDDYYALDYWGQGTSVTVSS
VL: ENVLTQSPAIMSTSPGEKVTMTCNVSSSVSYMRWFQQKSSTSPKLWIYDTSKLASGVPGRFSGSGSGHSYSLTISSMEADDVATYYCFQGNGYPLTFGAGTKLELK
As for B1, in experiment [1], the half maximal inhibitory concentration (IC50) of ADAMTS13 activity in normal human plasma, FRETS-VWF73 assay turned out to be 0.47 µg/mL. In experiment [2], the half maximal binding (Kd) came to 0.51 µg/mL.

Values taken from patent US20180362665A1.
